Experimental data published in US20200199241A1 (Chugai, published 2020).
Positions count from the first letter of the chain named.

B1: IL6R-BP186/IL6R-L (antibody, human IgG1)
heavy: QVQLQESGPGLVKPSETLSLTCAVSGHSISHDHAWSWVRQPPGEGLEWIGFISYSGITNYNPSLQGRVTISRDNSKNTLYLQMNSLRAEDTAVYYCARSLARTTAMDYWGEGTLVTVSSASTKGPSVFPLAPSSKSTSGGTAALGCLVKDYFPEPVTVSWNSGALTSGVHTFPAVLQSSGLYSLSSVVTVPSSSLGTQTYICNVNHKPSNTKVDKKVEPKSCDKTHTCPPCPAPDYLGDDSVFLFPPKPKDTLMISRTPEVTCVVVDVSHEDGEVKFNWYVDGVEVHNAKTKPREEQDNSTYRVVSVLTVLHQDWLNGKEYKCKVSNAALPKPIEKTISKAKGQPREPQVYTLPPSRDELTKNQVSLTCLVKGFYPSDIAVEWESNGQPENNYKTTPPVLDSDGSFFLYSKLTVDKSRWQQGNVFSCSVMHEALHNHYTQESLSLSP
light: DIQMTQSPSSLSASVGDRVTITCRASQDISSYLNWYQQKPGKAPKLLIYYTSRLHSGVPSRFSGSGSGTDFTFTISSLQPEDIATYYCQQGNTLPYTFGQGTKVEIK
notes: Anti-IL-6R human IgG1 variant; copies: 2 + 2
B2: IL6R-BP189/IL6R-L (antibody, human IgG1)
heavy: B1 heavy with D235E, Y236L, H270D, D298Y
light: B1 light
notes: as for B1
B3: IL6R-BP211/IL6R-L (antibody, human IgG1)
heavy: B1 heavy with Y236L, D239G, H270D, D298Y, K332R
light: B1 light
notes: as for B1
B4: IL6R-BP208/IL6R-L (antibody, human IgG1)
heavy: B1 heavy with Y236L, H270D, D298Y, A328K, K332R
light: B1 light
notes: as for B1
B5: IL6R-BP190/IL6R-L (antibody, human IgG1)
heavy: B1 heavy with D235E, Y236L, H270D, D298Y, A328K
light: B1 light
notes: as for B1
B6: IL6R-BP187/IL6R-L (antibody, human IgG1)
heavy: B1 heavy with D235E, D239G, D298Y
light: B1 light
notes: as for B1
B7: IL6R-BP209/IL6R-L (antibody, human IgG1)
heavy: B1 heavy with D235E, Y236L, H270D, D298Y, K332R
light: B1 light
notes: as for B1
B8: IL6R-BP194/IL6R-L (antibody, human IgG1)
heavy: B1 heavy with H270D, D298Y
light: B1 light
notes: as for B1
B9: IL6R-BP203/IL6R-L (antibody, human IgG1)
heavy: B1 heavy with D235E, Y236L, D298Y, A328K, K332R
light: B1 light
notes: as for B1
B10: IL6R-BP195/IL6R-L (antibody, human IgG1)
heavy: B1 heavy with H270D
light: B1 light
notes: as for B1
B11: IL6R-BP188/IL6R-L (antibody, human IgG1)
heavy: B1 heavy with Y236L, H270D, D298Y, A328K
light: B1 light
notes: as for B1
B12: IL6R-BP197/IL6R-L (antibody, human IgG1)
heavy: B1 heavy with H270D, A328D
light: B1 light
notes: as for B1
B13: IL6R-BP206/IL6R-L (antibody, human IgG1)
heavy: B1 heavy with Y236L, D239G, D298Y, A328K, K332R
light: B1 light
notes: as for B1
B14: IL6R-BP196/IL6R-L (antibody, human IgG1)
heavy: B1 heavy with D235E, D239G, H270D, D298Y
light: B1 light
notes: as for B1

molecular target: T1, FcγRIIb (human, UniProt P31994 43-217, limits assumed); experiment: SPR (Biacore); KD for FcγRIIaH divided by KD for FcγRIIb of the same antibody; column head in Table 52-1
T1 construct: also called FcγIIB; CD32
T1 sequence: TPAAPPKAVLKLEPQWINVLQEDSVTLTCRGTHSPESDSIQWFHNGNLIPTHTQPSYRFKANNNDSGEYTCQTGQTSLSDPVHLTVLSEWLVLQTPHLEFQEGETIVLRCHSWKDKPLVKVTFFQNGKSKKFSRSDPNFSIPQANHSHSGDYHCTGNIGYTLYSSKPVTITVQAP
Description: (§1) Furthermore, KD(IIaR)/KD(IIb) and KD(IIaH)/KD(IIb) in the table respectively represent the value obtained by dividing the KD value of each variant for FcγRIIaR by the KD value of each variant for FcγRIIb, and the value obtained by dividing the KD value of each variant for FcγRIIaH by the KD value of each variant for FcγRIIb. KD(IIb) of the parent polypeptide/KD(IIb) of the altered polypeptide refers to the value obtained by dividing the KD value of the parent polypeptide for FcγRIIb by the KD value of each variant for FcγRIIb.

Binder	KD(IIaH)/KD(IIb)
B1	152
B2	284
B3	120
B4	256
B5	293
B6	62.3
B7	195
B8	164
B9	227
B10	201
B11	350
B12	209
B13	123
B14	85.2

molecular target: T1, FcγRIIb; experiment: ratio of SPR KD values, parent IL6R-B3/IL6R-L

Binder	KD(IIb) of the parent polypeptide/KD(IIb) of altered polypeptide [fold]
B1	50.7
B2	41.8
B3	13.8
B4	95.4
B5	53.2
B6	10.7
B7	60.4
B8	59.4
B9	63.7
B10	62
B11	67.6
B12	53.7
B13	15.8
B14	13.9

molecular target: T1, FcγRIIb; experiment: SPR (Biacore); KD for FcγRIIaR divided by KD for FcγRIIb of the same antibody; column head in Table 52-1
Description: as §1

Binder	KD(IIaR)/KD(IIb)
B1	15.8
B2	18.5
B3	18.5
B4	26.3
B5	12.3
B6	9.7
B7	22.7
B8	15.8
B9	20.5
B10	18.2
B11	21.9
B12	17.1
B13	16.1
B14	13.4

molecular target: T2, FcγRIIIa type V (human, UniProt P08637 17-208, limits assumed); experiment: SPR (Biacore), method of Example 14
T2 construct: also called FcγRIIIaV; FcγRIIIa(V)
T2 sequence (P08637 17-208 F176V limits assumed): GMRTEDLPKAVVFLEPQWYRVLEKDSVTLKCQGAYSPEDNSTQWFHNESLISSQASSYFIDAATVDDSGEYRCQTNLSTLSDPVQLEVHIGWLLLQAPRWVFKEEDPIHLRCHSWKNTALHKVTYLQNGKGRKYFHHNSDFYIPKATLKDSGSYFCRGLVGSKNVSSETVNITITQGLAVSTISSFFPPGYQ

Binder	Kd [nM]
B1	49000
B2	49000
B3	73000
B4	53000
B5	45000
B6	56000
B7	41000
B8	27000
B9	72000
B10	31000
B11	58000
B12	33000
B13	69000
B14	51000

Molecular target: T3, FcγRIIa type R (human, UniProt P12318 36-217)
T3 construct: also called FcγRIIaR; FcγRIIa(R)
T3 chain: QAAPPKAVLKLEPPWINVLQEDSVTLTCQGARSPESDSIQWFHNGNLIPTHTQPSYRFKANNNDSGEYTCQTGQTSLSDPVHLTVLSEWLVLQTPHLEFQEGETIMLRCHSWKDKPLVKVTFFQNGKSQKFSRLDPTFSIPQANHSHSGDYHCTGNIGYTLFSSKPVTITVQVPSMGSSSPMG
Experiment: SPR (Biacore), method of Example 14

Binder	Kd [nM]
B1	960
B2	1400
B3	4100
B4	850
B5	1100
B6	2800
B7	1200
B8	820
B9	990
B10	910
B11	1000
B12	980
B13	3100
B14	3000

molecular target: T1, FcγRIIb; experiment: SPR (Biacore), method of Example 14

Binder	Kd [nM]
B1	61
B2	74
B3	220
B4	32
B5	58
B6	290
B7	51
B8	52
B9	49
B10	50
B11	46
B12	58
B13	200
B14	220

molecular target: T4, FcγRIIa type H (human, UniProt P12318 36-217); experiment: SPR (Biacore), method of Example 14
T4 construct: also called FcγRIIaH; FcγRIIa(H)
T4 sequence: T3 chain with R133H

Binder	Kd [nM]
B1	9300
B2	21000
B3	27000
B4	83000
B5	17000
B6	18000
B7	10000
B8	8500
B9	11000
B10	10000
B11	16000
B12	12000
B13	24000
B14	19000

molecular target: T5, FcγRIa (human, UniProt P12314 16-292, limits assumed); experiment: SPR (Biacore), method of Example 14
T5 construct: also called CD64
T5 sequence (P12314 16-292 limits assumed): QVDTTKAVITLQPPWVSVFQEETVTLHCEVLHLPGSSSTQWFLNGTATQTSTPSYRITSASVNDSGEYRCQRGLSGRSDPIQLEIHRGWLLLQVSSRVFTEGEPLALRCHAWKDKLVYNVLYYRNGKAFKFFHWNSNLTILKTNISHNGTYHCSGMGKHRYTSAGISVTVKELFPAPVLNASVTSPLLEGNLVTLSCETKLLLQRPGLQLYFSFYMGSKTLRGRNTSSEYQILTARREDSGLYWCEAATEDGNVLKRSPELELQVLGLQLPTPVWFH

Binder	Kd [nM]
B1	45
B2	42
B3	4.2
B4	19
B5	63
B6	25
B7	39
B8	24
B9	180
B10	23
B11	21
B12	19
B13	8.2
B14	14
